Source: the nanobody polyreactivity screen of Harvey et al. (2022)

Assay: yeast display, Sf9 membrane polyspecificity reagent, FACS + sequencing; frameworks hold sequencing errors
Outline: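 After 36–48 hours of galactose induction, yeast (Saccharomyces cerevisiae BJ5465) displaying a synthetic nanobody library were stained at 4 °C for 1 hour with 10% biotinylated, detergent-solubilized Sf9 membrane reagent. Streptavidin microbeads enriched the stained cells before FACS sorting into low and high (top ~1%) gates on anti-HA and streptavidin fluorescence. Each clone's polyreactivity label reflects its gate of origin.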

Sequence | polyreactivity (PSR sort gate)
QVQLVESGGGLVQAGGSLRLSCAASGNTFYPHAMGWYRQAPGTERELVAAISSTGGRTYYADSVKGRFTISRDNAKNTVYLQMNSLKPEDTAVYFCNTYACVAGDYWGQGTQVTVSS | high polyreactivity
HVQLQESGGCLVQAGGSLRLSCAARGSNSRLDSMGWNRQASGKVRELVAAIDNGSTTYYADSVKGRLTISRDNAKYSVYLQMNSLKAEDTAVYFCAAVRGGGGTHAYWGQGTQVTVSG | low polyreactivity
QVQLVESGGGLVQAGGSLRLSCAASGYILQINAMGWYRQAPGKERELVAAISISGGNTYYADSVKGRFTISRDNAKNTVYLQMNSLKPEDTAVYYCAAYRYYSYLVRYGLLLAYYYWGQGTQVTVSS | low polyreactivity
QVQHVESGGGLVQAGGSLRLSCAASGSTFVQNAMGWYRQAPGKERELVAAISRSGGRTYYAYSVKGRFTISRDNAKNTVYLQMNSLKPEDTAVYYCAARYPVRPDDGYWGKGTQVTVSS | high polyreactivity
QVQLVESGGGLVQAGGSLRLSCAASGNTFWSYTMGWYRQAPGKERELVAAITRSGGSTYYADSVKGRFTISRDHAKNTVYLQMNSLKPEDTAVYYCAADYYSASRFGYWGQGTQVTVSS | high polyreactivity
QVQLVESGGGLVQAGGSLRLSCASSGRIFRNNVMGWYRQAHGKVRELVAAISATGTITRYADSVKGSFTISRDYSKNTVYLQMNSLKPEDTAVYYCAKDRGWWLGFIMDYWGQGSQVTVSS | low polyreactivity
QVQLVESGGGLVQAGGSLRLSCAASGSTFEYYAMGWYRQAPGKERELVAAISTSGGSTYYADSVKGRFTISRDNAKNTVYLQMNSLKPEDTAVYYCNRGRRYSHKYDYWGQGTQVTVSS | high polyreactivity
QVQLVESGGGLVQAGRSLRLSCAASGSTFPVNTMGWYRQAPGKDRELVAAITKNGANTYYADSVKGRFTISRDNAKNTVYLQMNSLKPEDTAVYYCAARYVYGKSYSRWLVELDYWGQGTQVTVSS | low polyreactivity
QVQLVESGGGLVQAGGSLRLSCAASGFIFDGYTMGWYRQAPGKERELVAAITTSGTSTYYADSVKGRFTISRDNAKNTVYLQMNSLKPEDTADYYCAARQYRHRVKYYYWGQGTQVTVSS | high polyreactivity
QVQLVESGGGLVQAGGSLRLSCAASGSTFYYYAMGWYRQAPGKERELVATISRSTARTFYADSVKGRFTISRDNAKNTVYLQMNSLKPEDTAVYYCAATSYVSVYPSYYRFGTYGYWGQGTQVTVSS | high polyreactivity
QVQLVESGGGLVQAGGSLRLSCAASGRIFYGYAMGWYRQAPGKERELVAAITWIDGSTYYADSVKGRFTISRDNAKNTVYLQMNSLKPEDTAVYFCNKTWYGDSGTRTYWGQVTQVTVSS | low polyreactivity
QVQLVESAGGLVQAGGSHRLSCAASGFIFDSYAMGCYRPAPGKERELVAAITYSGSSTYYADSVKGRFTISRDNAKNTVYLQMNSLKPEDTGVYYCAAVWRYSHLYGYWGQGTQVTVSS | high polyreactivity
QVQLVESGGGLVQAGGSLRLSCAASGGPFYTYTMGWYRQAPGKERELVAAISFSDASTYYADSVKGRFTISRDNAKNTVFLQMNSLKPEDTGVYYCNAGVLQWVYYPFDYWGQGTQVTVSS | low polyreactivity
QVQLVESGGGLVQAGGSLRLSCAASGRTFHYNAMGWYRQAPGKERELVAAITRSGGSTYYADSVKGRFTISRDNAKNTVYLQMNSLKPEDTAVYYCNAAYLHPGPFDYWGQGTQVTVSS | low polyreactivity
QVQLVESGGGLVQAGGSLRLSCAATGRTFINYAMGWYRQAPGKERALVAAITTGGRTNYADSVKGRFTISRDNAKNTVYLQMNSLKPEDTAVFYCAADRYYWGRYTLNYWGQGTQVTVSS | low polyreactivity
QVQLVESGAGLVQAGGSLRLSCAASGSTFPFYAMGWSRQAPGKERELVAAITSGGSTYADSVKGRFTISRDNAKNTVYLQMNSLKPEDTAVYYCNAEQNPSGLYDYRGVEGEMGYWGQGTQVTVSS | low polyreactivity
QVQLVESGGGLVQAGGSLRLSCAASGFTFAVYVMGWYRQAPGKERELVATISFSVGSTYYADSVKGRFTISRDNAKNTVYLQMNSLKPEDTAVYYCNADPPPEYYPDKDNYWGQGTQVTVSS | low polyreactivity
